Experimental data from article PMC4169075.

target: GABAA receptor β2 subunit, FLAG-tagged (β2^FLAG) (human) (UniProt P47870); test: co-IP

Row | amount associated with β2^FLAG relative to wildtype γ2L^HA | Substance
1 | 0.94 | GABAA receptor γ2L(N79S) subunit, HA-tagged (γ2L(N79S)^HA)
2 | 0.71 | GABAA receptor γ2L(P83S) subunit, HA-tagged (γ2L(P83S)^HA)
3 | 0.47 | GABAA receptor γ2L(R82Q) subunit, HA-tagged (γ2L(R82Q)^HA)
